# Numbered stars: 1 amine (or outer) side, 2 acyl side, 3 side chain; on linkers, the order of the positions; unused ones are H or OH. Bridge positions count the residues as written; N and C are the ends. Square brackets hold non-standard residues; d marks the D form. Side chains are listed from the residue outwards. Ends that are not written are not given here. * marks the point of attachment. C20 diacid = O=C(O)CCCCCCCCCCCCCCCCCCC(=O)*; γGlu = O=C(O)[C@H](CCC(=O)[*:2])N[*:1]
# T1: human amylin receptor (amylin 3(a) receptor: human calcitonin receptor co-expressed with RAMP-3) (human, UniProt P30988 25-474; O60896 24-148, limits assumed)
# T1 construct: whole, on cells; also called hAmylin-R; hAmylinR
# T1 sequence (looked up) 1: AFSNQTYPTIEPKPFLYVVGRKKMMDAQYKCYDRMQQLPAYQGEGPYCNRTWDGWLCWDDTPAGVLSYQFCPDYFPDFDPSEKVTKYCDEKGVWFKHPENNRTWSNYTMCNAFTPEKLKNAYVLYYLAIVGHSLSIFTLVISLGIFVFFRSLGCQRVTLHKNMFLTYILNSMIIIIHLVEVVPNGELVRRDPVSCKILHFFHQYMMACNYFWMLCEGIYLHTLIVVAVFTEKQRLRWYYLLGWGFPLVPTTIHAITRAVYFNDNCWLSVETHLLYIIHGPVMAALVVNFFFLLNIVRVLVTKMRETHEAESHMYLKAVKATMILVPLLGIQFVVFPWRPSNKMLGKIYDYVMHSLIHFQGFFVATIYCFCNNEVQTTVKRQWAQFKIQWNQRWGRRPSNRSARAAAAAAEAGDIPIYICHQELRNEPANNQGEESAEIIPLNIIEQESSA
# T1 sequence (looked up) 2: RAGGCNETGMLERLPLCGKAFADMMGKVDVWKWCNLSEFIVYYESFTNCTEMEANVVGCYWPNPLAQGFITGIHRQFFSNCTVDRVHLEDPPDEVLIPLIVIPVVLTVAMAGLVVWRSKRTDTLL
# T2: rat calcitonin receptor (rat, UniProt P32214 25-516)
# T2 construct: whole, on cells; Used as membranes prepared from transiently transfected BHK tk'ts 13 cells (Assay VIII); also called rCTR; rat calcitonin (a) receptor
# T2 sequence (looked up): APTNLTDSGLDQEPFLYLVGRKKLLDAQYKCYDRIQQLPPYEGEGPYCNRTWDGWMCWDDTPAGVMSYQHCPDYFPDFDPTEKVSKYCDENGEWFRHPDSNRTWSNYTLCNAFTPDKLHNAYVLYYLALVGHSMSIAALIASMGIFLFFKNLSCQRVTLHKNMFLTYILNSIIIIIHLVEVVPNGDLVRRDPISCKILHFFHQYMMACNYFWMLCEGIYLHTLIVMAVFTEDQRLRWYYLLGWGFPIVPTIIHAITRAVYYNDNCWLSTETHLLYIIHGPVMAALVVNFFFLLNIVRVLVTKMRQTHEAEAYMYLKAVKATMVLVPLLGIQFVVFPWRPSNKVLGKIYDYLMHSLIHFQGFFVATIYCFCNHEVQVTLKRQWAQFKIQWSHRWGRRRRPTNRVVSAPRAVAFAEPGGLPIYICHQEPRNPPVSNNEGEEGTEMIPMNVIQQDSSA
# T3: rat amylin receptor (rat calcitonin receptor + rat RAMP 3) (rat, UniProt P32214 25-516; Q9JJ73 23-147)
# T3 construct: whole, on cells; Used as membranes prepared from transiently transfected BHK tk'ts 13 cells (Assay VI); also called rAmylin-R; rat amylin 3(a) receptor
# T3 sequence (looked up) 1: T2 sequence (looked up)
# T3 sequence (looked up) 2: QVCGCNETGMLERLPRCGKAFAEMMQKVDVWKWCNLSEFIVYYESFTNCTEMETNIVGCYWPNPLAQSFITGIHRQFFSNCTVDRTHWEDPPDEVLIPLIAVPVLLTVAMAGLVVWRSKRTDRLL
# B1: N^ε1-[(4S)-4-carboxy-4-[[(4S)-4-carboxy-4-(19-carboxynonadecanoylamino)butanoyl]amino]butanoyl]-[Glu14,Arg17,Pro21,Pro27,Pro34,Glu35,Pro37]-h-amylin (peptide)
# peptide: K([γGlu-γGlu-C20 diacid])CNTATCATQRLAEFLRHSSPNFGAIPSSTNVGPETP-NH2
# modifications: disulfide 2-7; N-terminus assumed
# SMILES: CC[C@H](C)[C@H](NC(=O)[C@H](C)NC(=O)CNC(=O)[C@H](Cc1ccccc1)NC(=O)[C@H](CC(N)=O)NC(=O)[C@@H]1CCCN1C(=O)[C@H](CO)NC(=O)[C@H](CO)NC(=O)[C@H](Cc1c[nH]cn1)NC(=O)[C@H](CCCNC(=N)N)NC(=O)[C@H](CC(C)C)NC(=O)[C@H](Cc1ccccc1)NC(=O)[C@H](CCC(=O)O)NC(=O)[C@H](C)NC(=O)[C@H](CC(C)C)NC(=O)[C@H](CCCNC(=N)N)NC(=O)[C@H](CCC(N)=O)NC(=O)[C@@H](NC(=O)[C@H](C)NC(=O)[C@@H]1CSSC[C@H](NC(=O)[C@@H](N)CCCCNC(=O)CC[C@H](NC(=O)CC[C@H](NC(=O)CCCCCCCCCCCCCCCCCCC(=O)O)C(=O)O)C(=O)O)C(=O)N[C@@H](CC(N)=O)C(=O)N[C@@H]([C@@H](C)O)C(=O)N[C@@H](C)C(=O)N[C@@H]([C@@H](C)O)C(=O)N1)[C@@H](C)O)C(=O)N1CCC[C@H]1C(=O)N[C@@H](CO)C(=O)N[C@@H](CO)C(=O)N[C@H](C(=O)N[C@@H](CC(N)=O)C(=O)N[C@H](C(=O)NCC(=O)N1CCC[C@H]1C(=O)N[C@@H](CCC(=O)O)C(=O)N[C@H](C(=O)N1CCC[C@H]1C(N)=O)[C@@H](C)O)C(C)C)[C@@H](C)O
# B2: N^ε1-[(4S)-4-carboxy-4-[[(4S)-4-carboxy-4-(19-carboxynonadecanoylamino)butanoyl]amino]butanoyl]-[D-Asp14,Arg17,Pro21,Pro27,Arg35]-h-amylin (peptide)
# peptide: K([γGlu-γGlu-C20 diacid])CNTATCATQRLA[dD]FLRHSSPNFGAIPSSTNVGSRTY-NH2
# modifications: disulfide 2-7 (inferred)
# notes: Residue 14 is the D-isomer of Asp
# How the values were obtained:
# [1] = target: T1, human amylin receptor (amylin 3(a) …); assay: SPA competition binding, membranes of Amylin 3(a)/CRE-luc BHK cells, displacement of 125I-rat amylin (Assay V)
# Summary of the method: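 Membranes from BHK Amylin 3(a)/CRE-luc cells (35 ng/μL final) were mixed with SPA beads and test compounds in 50 mM Hepes pH 7.4 with 1 mM CaCl2, 5 mM MgCl₂, 0.1% OA and 0.02% Tween20. Incubation ran 120 min at 25° C with shaking; IC₅₀ came from one-site competition fitting.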
# [2] = target: T2, rat calcitonin receptor; assay: SPA competition binding, displacement of 125I-calcitonin from membranes of BHK tk'ts 13 cells with rat calcitonin receptor (Assay VIII)
# [3] = target: T3, rat amylin receptor (rat calcitonin …); assay: SPA competition binding, displacement of 125I-rat amylin from membranes of BHK tk'ts 13 cells with rat calcitonin receptor + rat RAMP 3 (Assay VI)
Binder,IC50 [1],IC50 [2],IC50 [3]
B1,0.533 nM,,
B2,,536 nM,1.69 nM

# Source: US20140087995A1 (published 2014)
